Results reported in patent US20250170238A1 (LANIER BIOTHERAPEUTICS, published 2025).

How the values were obtained:
[1] = molecular target: T1, mouse IL-25 (made from mouse (NSO) source) (mouse, UniProt Q8VHH8 17-169); test: cell-based or functional assay
T1 sequence (looked up): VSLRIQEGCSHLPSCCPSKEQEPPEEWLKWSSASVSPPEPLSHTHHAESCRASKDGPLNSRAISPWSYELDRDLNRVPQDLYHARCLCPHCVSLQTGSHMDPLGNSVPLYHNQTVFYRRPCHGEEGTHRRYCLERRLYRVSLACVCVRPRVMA

[2] = molecular target: T2, Human IL-25 (made from human (HEK) sources) (human, UniProt Q9H293 33-177); test: cell-based or functional assay
T2 sequence (looked up): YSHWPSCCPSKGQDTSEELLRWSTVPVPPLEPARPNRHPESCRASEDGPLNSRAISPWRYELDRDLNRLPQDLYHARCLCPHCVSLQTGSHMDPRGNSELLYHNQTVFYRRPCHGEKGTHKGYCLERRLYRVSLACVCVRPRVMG

Cyno Monkey IL-25 (HEK) = molecular target: T3, Cyno Monkey IL-25 (HEK) (cynomolgus monkey, UniProt G7P9V9 33-176); test: binding affinity, method not stated; cyno monkey IL-25 made in HEK
T3 construct: also called Cyno Monkey (HEK)
T3 sequence: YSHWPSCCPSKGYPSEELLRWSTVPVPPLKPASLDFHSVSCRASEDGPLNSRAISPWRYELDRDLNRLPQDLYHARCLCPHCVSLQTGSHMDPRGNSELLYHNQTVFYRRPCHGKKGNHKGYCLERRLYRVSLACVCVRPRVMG

[3] = molecular target: T1, mouse IL-25 (made from mouse (NSO) …); test: binding affinity, method not stated; mouse IL-25 made in NSO
[4] = molecular target: T2, Human IL-25 (made from human (HEK) …); test: binding affinity, method not stated; human IL-25 made in HEK

B1: anti-IL-25 antibody LNR125 (antibody, V domains shown)
VH: QVTLKVSGPGILQPSQTLSLTCSFSGFSLNTSGMGVGWIRQPSGKGLEWLAHIWWDDVKRYNPALKSRLTISKDTSGSQVFLKIASVDTADTATYYCARTLPHFFDYWGQGTTLTVSS
VL: DIQMTQSPAIMSASPGEKVTISCRASSSVSYMYWYQQKSGSSPKPWIYRTSNLASGVPARFSGSGSGTSYSLTISSMEAEDAATYYCKQYHSYPPTWTFGGGTKLEIKR
B1 was tested, and the “Potency IC50 in HT29 cell assay” value [1] was 130 µg/mL, the “Potency IC50 in HT29 cell assay” value [2] was 120 µg/mL and the Kd (Cyno Monkey IL-25 (HEK)) was 0.17 nM. For the same binder, the Kd [3] was 0.168 nM and the Kd [4] was 0.128 nM.

B2: humanized anti-IL-25 antibody LNR125.38 (antibody, V domains shown)
VH: QVTLKESGPTLVKPTQTLTLTCTFSGFSLSTSGMGVGWIRQPPGKALEWLAHIWWDDVKRYNPSLKSRLTITKDTSGSQVVLTMTNMDPVDTATYYCARTLPHFHDYWGQGTTLTVSS
VL: DIQMTQSPSTLSASVGDRVTITCRASSSVSYMYWYQQKPGKAPKPLIYRTSNLASGVPSRFSGSGSGTEYTLTISSLQPDDFATYYCKQYHSYPPTWTFGGGTKVEIKR
In the case of B2, the “Potency IC50 in HT29 cell assay” value [1] is reported as 780 µg/mL, the “Potency IC50 in HT29 cell assay” value [2] is reported as 100 µg/mL and the Kd (Cyno Monkey IL-25 (HEK)) is reported as 0.235 nM. The Kd [3] was 0.096 nM and the Kd [4] was 0.051 nM.
